Blank lines part the entries; values can stand above or below the compound they belong to.
Columns and labels:
[1] = target: CD71 antigen (transferrin receptor) on the surface of ARH-77 myeloma cells (UniProt P02786); experiment: QIFIKIT indirect immunofluorescence, flow cytometry on ARH-77 cells, control antibody at 5 µg/ml, anti-mouse IgG-FITC
[2] = target: CD71 antigen (transferrin receptor) on the surface of ARH-77 myeloma cells (UniProt P02786); experiment: QIFIKIT indirect immunofluorescence, flow cytometry on ARH-77 cells, control antibody at 5 µg/ml; BAE is background non-specific binding capacity
ARH-77 tumour cells = experiment: Survival of SCID mice bearing ARH-77 tumour cells, anti-CD71 antibody with or without Velcade, section 3.2 (FIG. 3); assay type: in vivo
Procedure: The injection was carried out between 24 to 72 hours after whole-body exposure of the mice to gamma radiation (1.8 Gy, ^60Co, INRA, Dijon, France).
The day of injection of tumour cells is considered as day 0 (D0). […] The treatment with Velcade® commences on day 4 and therefore takes place on days D4, D7, D11, D14, D18, D25, D28 and D32.
The 40 mice are separated into 5 groups.
The injection volume of Velcade® (10 ml/kg) is adjusted to the […] of the individual animals.
The mice surviving the experiment were sacrificed after 144 days following the injection of tumour cells. An autopsy was carried out on all the mice found dead or sacrificed during the experiment due to the presence of one of the pathological signs specified in the above section.
Table 5 below compares the average survival of the mice in the 5 groups which died or were sacrificed before the end of the experiment due to the presence of the pathological signs specified above.

[3] = target: CD71 antigen (transferrin receptor) on the surface of ARH-77 myeloma cells (UniProt P02786); experiment: flow cytometry on ARH-77 cells, control antibody at 10 µg/ml, anti-mouse IgG-PE

UniProt P02786, sequence (P02786 whole entry): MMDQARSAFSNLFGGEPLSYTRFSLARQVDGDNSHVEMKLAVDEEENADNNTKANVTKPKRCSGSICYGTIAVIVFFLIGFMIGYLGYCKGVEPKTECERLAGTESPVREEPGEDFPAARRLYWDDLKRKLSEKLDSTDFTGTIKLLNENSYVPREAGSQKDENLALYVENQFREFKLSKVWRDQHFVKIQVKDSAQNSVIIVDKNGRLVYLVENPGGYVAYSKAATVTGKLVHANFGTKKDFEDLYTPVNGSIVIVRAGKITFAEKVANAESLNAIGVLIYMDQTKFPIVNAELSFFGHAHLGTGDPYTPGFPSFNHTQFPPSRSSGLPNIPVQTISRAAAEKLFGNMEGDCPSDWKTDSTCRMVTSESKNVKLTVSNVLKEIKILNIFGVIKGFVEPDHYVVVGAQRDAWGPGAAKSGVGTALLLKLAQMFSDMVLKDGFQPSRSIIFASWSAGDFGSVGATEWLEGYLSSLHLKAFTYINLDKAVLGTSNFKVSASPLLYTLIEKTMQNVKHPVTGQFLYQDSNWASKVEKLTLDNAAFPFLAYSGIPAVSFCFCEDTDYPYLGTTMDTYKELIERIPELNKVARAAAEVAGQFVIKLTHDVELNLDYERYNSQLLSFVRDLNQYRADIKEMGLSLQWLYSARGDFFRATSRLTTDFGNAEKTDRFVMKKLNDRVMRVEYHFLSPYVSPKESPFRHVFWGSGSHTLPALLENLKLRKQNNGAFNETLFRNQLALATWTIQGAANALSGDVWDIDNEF

MFI [1]: 5.2 | BAE [2]: 2290
Compound: irrelevant antibody (anti-mouse IgG1) used as negative control

Compound: CC(C)C[C@H](NC(=O)[C@H](Cc1ccccc1)NC(=O)c1cnccn1)B(O)O [Velcade®, bortezomib]
The number of mice that died before the end of the experiment (ARH-77 tumour cells; 8 mice per group, end at day 144, doses as in Table 4): 8 | day of death or of sacrifice due to pathological signs after injection of ARH-77 cells (ARH-77 tumour cells; 8 mice per group, antibodies 1.2 mg/mouse/inj twice weekly for 6 weeks, Velcade 0.5 mg/kg/inj twice weekly for 4 weeks): 27 day | The survival median (ARH-77 tumour cells; doses as in Table 4): 29.5 | The survival average (ARH-77 tumour cells; only mice that died or were sacrificed before the end of the experiment, doses as in Table 4): 28.4 days

CD71+ % [3]: 3.7% | CD71- % [3]: 96.3% | MFI [3]: 4.9
Compound: negative control antibody IgG1 (MAT002)

From patent publication US20130216476A1 (LFB BIOTECHNOLOGIES, priority 2010, published 2013)
